Paper PMC3154026

Biological target: TamL, FAD-dependent oxidase (flavoprotein) of the tirandamycin biosynthetic gene cluster (Streptomyces sp. 307-9)
Assay: crystal structure

- stoichiometry N: 2
Substance: TamL, FAD-dependent oxidase (flavoprotein) of the tirandamycin biosynthetic gene cluster (enzyme)
